B1: Heart- and neural crest derivatives-expressed protein 2 (Mus musculus), Q61039 (parent)
chain: MSLVGGFPHHPVVHHEGYPFAAAAAAAAAAAASRCSHEENPYFHGWLIGHPEMSPPDYSMALSYSPEYASGAAGLDHSHYGGVPPGAGPPGLGGPRPVKRRGTANRKERRRTQSINSAFAELRECIPNVPADTKLSKIKTLRLATSYIAYLMDLLAKDDQNGEAEAFKAEIKKTDVKEEKRKKELNEILKSTVSSNDKKTKGRTGWPQHVWALELKQ
partner: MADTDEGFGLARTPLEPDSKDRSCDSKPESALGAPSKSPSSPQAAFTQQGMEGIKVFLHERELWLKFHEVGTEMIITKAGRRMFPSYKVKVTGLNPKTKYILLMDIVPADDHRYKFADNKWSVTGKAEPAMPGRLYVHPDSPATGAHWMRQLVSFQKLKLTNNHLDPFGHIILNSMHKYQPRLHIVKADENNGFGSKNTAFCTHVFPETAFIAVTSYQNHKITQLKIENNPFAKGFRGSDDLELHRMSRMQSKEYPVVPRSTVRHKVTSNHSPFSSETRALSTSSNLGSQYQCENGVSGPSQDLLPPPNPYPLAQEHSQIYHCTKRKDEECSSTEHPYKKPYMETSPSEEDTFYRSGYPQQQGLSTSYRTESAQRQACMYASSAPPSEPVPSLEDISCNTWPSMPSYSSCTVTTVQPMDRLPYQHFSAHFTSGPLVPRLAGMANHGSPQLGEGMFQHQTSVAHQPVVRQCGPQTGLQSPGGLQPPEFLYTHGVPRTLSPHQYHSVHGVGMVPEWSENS

Variants of: B1
Details: with tbx5_mouse Tbx5, P70326

effect of a mutation on the interaction | Variant
decreasing interaction strength | MSLVGGFPHHPVVHHEGYPFAAAAAAAAAAAASRCSHEENPYFHGWLIGHPEMSPPDYSMALSYSPEYASGAAGLDHSHYGGVPPGAGPPGLGGPRPVKRRGTANRKERRRTQSINSAFAELRECIPNVPADTKLSKIKTLRLATSYIAYLMDLLAKDDQNGEAEAFKAEIKKTDVKEEKRKKELNEILKSTVSSNDKKTKVRTGWPQHVWALELKQ [G202V]
